Data taken from publication PMC4234684 (Cellular and molecular life sciences : CMLS, 2014).

Assay: Michaelis–Menten kinetic analysis with colorimetric substrate nitrocefin
Assay type: biochemical
Conditions: PBS, 30 °C, mean ± SEM

B1: Enterobacter chloacae P99 beta-lactamase (protein, UniProt P05364 21-381, looked up)
Beta-lactamase: TPVSEKQLAEVVANTITPLMKAQSVPGMAVAVIYQGKPHYYTFGKADIAANKPVTPQTLFELGSISKTFTGVLGGDAIARGEISLDDAVTRYWPQLTGKQWQGIRMLDLATYTAGGLPLQVPDEVTDNASLLRFYQNWQPQWKPGTTRLYANASIGLFGALAVKPSGMPYEQAMTTRVLKPLKLDHTWINVPKAEEAHYAWGYRDGKAVRVSPGMLDAQAYGVKTNVQDMANWVMANMAPENVADASLKQGIALAQSRYWRIGSMYQGLGWEMLNWPVEANTVVEGSDSKVALAPLPVAEVNPPAPPVKASWVHKTGSTGGFGSYVAFIPEKQIGIVMLANTSYPNPARVEAAYHILEALQ
modifications: C-terminal His6 tag
kcat/Km: 7.5e+06 ± 600000 M⁻¹ s⁻¹
